Experiment: yeast display, Sf9 membrane polyspecificity reagent, FACS + sequencing; frameworks hold sequencing errors
In short: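 Nanobodies came from a synthetic yeast display library in Saccharomyces cerevisiae BJ5465, induced with galactose for 36–48 hours and stained for 1 hour at 4 °C with 10% biotinylated, detergent-solubilized Sf9 membrane reagent. Cells were enriched on streptavidin microbeads and then FACS-sorted, with low and high (top ~1%) gates set on anti-HA fluorescence for expression and streptavidin fluorescence for reagent binding. Each polyreactivity label reflects the gate a clone came from. Genes were amplified by colony PCR, sequenced by MiSeq 2 × 250 and filtered by CDR length.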

Sequence	polyreactivity (PSR sort gate)
QDQLVESGGGLVQAGGSLRISCAASGITLEYNAMGGYRQAPGKERELVATIRSGGSTNYADSVKVRFTISRDNANNTVYLQMNSLKPEDTAVYYCAANHNTEYDWGQGTQVTVSS	high polyreactivity
QDQLVESGGGLVQAGGSLRISCAASGSIFDVNAMGWYRQAPGKERELVAAISDSGGSTYYADSVKGRFTISRDNAKNTVYLEMNSLKPVDTAVYYCNADWSWYNYYDFDYWGQGTQVTVSS	low polyreactivity
QDQLVESGGGLVQAGGSLRISCAASGSIFTYNAMGWYREAPGKERELVAAINTSGSTNYADSVKGRFTISRDNAKNTVYLQKNSLKPEDTAVYYCAADYPYWRRPYSRYGYWGQGTQVTVSS	low polyreactivity
QDQLVESGGGLVQAGGSLRISIAASARTFRDYVMGWSRQAPGKERELVAAISTRGASTYYADSVKGRFTISRDNAKNTVYLQMNTLKPEDTADYYCAARSTRRGNEYDYWGQGTQVTVSS	high polyreactivity
QDQLVESGGGLVQAGGSLRLICAASASTFTRYAMGWYRQAPGKERELVACITGRGGSTYYADSVKGRFPISRDYAKNTVYLQMNCLKPEDTAVYYCARAEGKCPYSRYWPYRGGYDYWGQGTQVTRSS	high polyreactivity
QDQLVESGGGLVQAGGSLRLICAASGRTFNRYGMGWNRQATGKERELVASITSGGSTNYADSVKGRFTISRDNAKNNVYLQMNSLKLEDTAVYYCAKRSIGRYPRTYDYWGQGTQVTVSS	low polyreactivity
QDQLVESGGGLVQAGGSLRLICAASGRTFYPYVMGWYRQAPGKERDLVAAITDSGGNTYYADSVKGRFTISRDNAKNTVYLQMNSLKPEDTAVYYCNARFYYPSRRGTFQYNYWGQGTQVTVSS	low polyreactivity
QDQLVESGGGLVQAGGSLRLICAASGYTFGHYVMGWYRQAPGKERELVAAITLSGGGTYYADSVKGRFTISRDNAKNTVYLQMNCLKPEDTAVYYCAAVGGEHAKKTYSRYKVDYWGQGTQVTVSS	low polyreactivity
QDQLVESGGGLVQAGGSLRLRCAASGFIFRYYAMGWYRQAPGKERELVAAIDYSGGSTNYADSVKRRFTISRDNAKNTVYLQMNSLKPEDTAVYYCNAEYTWHRGYDYWGQGTQVTVSS	low polyreactivity
QDQLVESGGGLVQAGGSLRLRCAASGRTFEGNAMGWYRQAAGTEGELVAAMTSGGPTNSADSVKGRFTISRDNAKNTVYFQMNSLKPEDTAVYYCADETRDRSTYFPGQAYDYWGQGTQVTVSS	low polyreactivity
QDQLVESGGGLVQAGGSLRLSCAASARIFPHYPMGWYRQAPGKERELVATITSGGRTNYADSVKGRFTISRDNAKNTVYLQMNSLKPEDTAVYYCAVDTWGSSWYDLFRETSDYWGHGTQVTVSS	low polyreactivity
QDQLVESGGGLVQAGGSLRLSCAASGFIFARYVMGWYRPAPGKERELVASITGSGVSTYYADSVKGRFTISRDNAKNTVYLQMNSLKPEDTAVYYCATRVYRRYYLNSWYNYWGQGTQVTVSS	high polyreactivity
QDQLVESGGGLVQAGGSLRLSCAASGFIFDDNAMGGYRQAPGKERELVAAITSGGGSTYYADSVKGRFTISRDNAKYTVYLQMNSLKPEDTAVYYCNAVPSQHDEFDYWGQGTQVTVSS	low polyreactivity
QDQLVESGGGLVQAGGSLRLSCAASGFIFDDNAMGWSRQAPGKERELVAAITSGGGSTYYAVSVKGRFTISRDNAKNTVYLQMNSLKPEDTAVYYCNAVPSQHDEFDYWGQGTQVTVSS	low polyreactivity
QDQLVESGGGLVQAGGSLRLSCAASGFIFGNYALGWYRQAPGKERELVATITWRGGSTYYADSVKGRFTISRDNAKNTVYLQMNSLKPEDTAVYYCARPYASYSSFYYYGYWGQGTQVTVSS	high polyreactivity
QDQLVESGGGLVQAGGSLRLSCAASGFIFGRYTMGWYRQAPWKERELVAAISGSDVSTYYADSVKGRFTISRDNAKNTVYIQMNSLKPEDTAVYYCAADAPWAYYEYDYWGQGTQVTVSS	low polyreactivity
QDQLVESGGGLVQAGGSLRLSCAASGFIFYFYAMVWYRQAPGKERELVAAISSGGSTNYADSVKGRFTISRDNAKNTVYLQMNSLKPEDTAVYYCNKGGYYKYFLNDYNYWGQGTQVTVSS	low polyreactivity
QDQLVESGGGLVQAGGSLRLSCAASGFILGLNAMGWYRQAPGKEREFVADISWSGDSTYYADSVKGRFTISRDNAKNTVYLQMNSLKPEDTAFYYCAAVPYYNWGYYYWGQGTQVTVSS	low polyreactivity
QDQLVESGGGLVQAGGSLRLSCAASGFIYFQYAMGWYRQAPGKERELVAAISGSGVTTYYADSVKGRFTISRDNAKYTVYLQMNSLKPEDTAVYYCNAALRWKYDWGQGTQVTVSS	low polyreactivity
QDQLVESGGGLVQAGGSLRLSCAASGFTFGTYAMGWYRQAPGKERELVAAISARGGSTYYADSVKGRFTISRDNAKNTVYLQMNSLKPEDTAVYYCAAYYGRHVTPPTGYDYWGQGTQVTVSS	high polyreactivity
QDQLVESGGGLVQAGGSLRLSCAASGFTFGWYAMGWYRQAPGKERELVAAITSRGGSTYYPDSVKGRFTISRDNAKNTVYLQMNSLKPEDTAVYYCAALYGWSGYDYWGQGTQVTVSS	high polyreactivity
QDQLVESGGGLVQAGGSLRLSCAASGFTFHNNVMGWYRQAPGKERELVATISKSGGSTYYADSVKGRITISRDNAKNTVYLQMNSLKPEDTAVYYCARRYRDYGRYGYWGQGTQVTVSS	high polyreactivity

Sequence	polyreactivity (PSR sort gate)
QDQLVESGGGLVQAGGSLRLSCAASGFTFRAYTMGWYRQAPGKERELVAAITYSGGRTYYADSVKGRFTISRDNAKKTVNLQMNSLNPEDTAVYYCAKRGWALSEYDYWGQGTQVTVSS	high polyreactivity
QDQLVESGGGLVQAGGSLRLSCAASGFTFTWNAMGWYRQAPGKERELVAGITRGGSTNYADSVKGRFTISRDNAKNTVYLQMNSLKPEDTAVYYCNVSFYFHHAGYDYWGQGTQVTVSS	low polyreactivity
QDQLVESGGGLVQAGGSLRLSCAASGFTFYSYAMGWYRQAPGKEREFVATITSSGGSTYYADSVKGRFTISRDTAKNTVYLQINSLNTEDTAVYYCAKDRYLYYRRRGQYDYWGQGTQVTVSS	high polyreactivity
QDQLVESGGGLVQAGGSLRLSCAASGFTFYTNVMGWYRQAPGKERELVAAINSGGSTNYADSVKGRFTISRDNAKNTVYLQMNSMKPEDTAVYYCNKSGTEIGYDYWGQGTQVTVLS	low polyreactivity
QDQLVESGGGLVQAGGSLRLSCAASGFTLSINAMGWYRQAPGKERELVAGISWSGGSTYYADSVKGRFTISRDNAKNTVYLQMNSLKPEDTAVYYCNADIYPDRYGSTNYDFNYWGQGTQVTVSS	low polyreactivity
QDQLVESGGGLVQAGGSLRLSCAASGHIFPYNAMGWYRQAPGKEREIVAASSFRGGSTYYADSVKGRFTISRDNAKNTVYLQMNSLKPEDTAVDYCAKRSYPWGQGTQVTVSS	low polyreactivity
QDQLVESGGGLVQAGGSLRLSCAASGIIFDVYAMGWYRPAPWNERELVAGITIGDITYYADSVKGRFTISRDNAKNTVYLQMNSLKPEDTAVYYCAADSYYYQTAYDYWGQGTQVTVSS	low polyreactivity
QDQLVESGGGLVQAGGSLRLSCAASGIIFGAYAMGWYRQAPGKERELVAAISQSGGSTYYADSVKGRFTISRDNAKITVYLQMNSLKPEDTAVYYCNVDPDVILVTSYDYWGQGTQVTVSS	low polyreactivity
QDQLVESGGGLVQAGGSLRLSCAASGIIFKYYAMGWYRQAPGKERELVAAITSGGSTNYADSVKGRFTISRDNAKNTVYLQMNSLKPEDTAVYYCAKRFYYRNRFDYWGHGTQVTVSS	low polyreactivity
QDQLVESGGGLVQAGGSLRLSCAASGIIYLTYAMGRYRQEPGKERELVATITSGGRTIYADSVKGRFTISLDNAKNTVYLQMNRLKPVDTAVYYCNALRYYHYDYWGQGTQVTVSS	high polyreactivity
QDQLVESGGGLVQAGGSLRLSCAASGINLSAYAMGWYRQAPGKERELVARISRSGGRTYYADSVKGRFTISRDNAKNTVYLQRNSLKQDDTAVYYCAADYTYGFGLYFGFGYWGQGTKVTVSS	high polyreactivity
QDQLVESGGGLVQAGGSLRLSCAASGITFYRYAMGWYRQAPGKERDLVAAITTSDTSTYYADSVKGRFTISRDNAKNTVYLQMNSLKPEDTAVYYCATDVVNIAPAEYDYWGQGTQVTVSS	low polyreactivity
QDQLVESGGGLVQAGGSLRLSCAASGITSSMNSMGWYRQAPGKERELVAAISWRGGSTYYADSVKGRFTISRDNAKNTVYLQLNSLKPEDTAVYYCAVRGKFDYWGQGTQVTVSS	high polyreactivity
QDQLVESGGGLVQAGGSLRLSCAASGLIFDSYAMGWYRQAPGKERELVAAITYTGGSTYYADSVKGRFTISRDNAKNTVYLQMNSLKPEDTAVYYCAADSPGPWRYDYWGQGTQVTVSS	high polyreactivity
QDQLVESGGGLVQAGGSLRLSCAASGLIFGYYAMGWYRQAPGKERELVAVISYSGGSTYYADSVKGRYTISRDNAKNTVYFQMNSMKPEDTAVYYCNTYRAYYRHTKEYGYWGQGTLVTVSS	high polyreactivity
QDQLVESGGGLVQAGGSLRLSCAASGLIFYGYVMGWYRQAPGKERELVAGISRNSGSTYYADSVKGRFTISRDNAKNTVYLQMNSLKPEDTAVYYCAALKFEAWAGEDYWGQGTQVTVSS	low polyreactivity
QDQLVESGGGLVQAGGSLRLSCAASGLTFAIYAMGCYRPAPGKERELVAGITWNTGRTYYADSVKGRFTISRDNAKNTVYLQMNSLNPEDTAVYYFAGRFVSRSVRGEATKYDYWGQGTQVTVSS	high polyreactivity
QDQLVESGGGLVQAGGSLRLSCAASGNNFFPYAMGWYRQAPGTEREFVAAINWSGGSTYYADSVKGRFTISRDNAKNTVYLQMNSLKPEDTAVYYCAASSGKWGHGYWGQGTQVTVSS	high polyreactivity
QDQLVESGGGLVQAGGSLRLSCAASGNTFNRYAKGWYRQAPGQERELVAAITSDGSTNYADSVKGRFTISRDNAKNTVYIQKNSMKPEDTAVYYCAAEHSGYPVAFYITGYGYDYCGQGTQVTVSS	low polyreactivity
QDQLVESGGGLVQAGGSLRLSCAASGNTFYVNVMGWYRQPPGKVREFVAAISTRGVSTSYADSVKGRFTISRDIAMNTVYLQMNSLKPEDTAVYYCAASFRRPEPKGTTYGYWGQGTQVTVSS	high polyreactivity
QDQLVESGGGLVQAGGSLRLSCAASGNTYLNAMGWYRQAPAKEREMVAAISKGGADTYYADSVKGRFTISRDNAKYTVYLQMNSLKPEDTAVYYCNADYWFRFGSSVDQVTEDYWGQGTQVTVSS	low polyreactivity
